The results in this text go back to patent US20030049661A1 (JCR PHARMACEUTICALS, published 2003).

Experiment [1] deals with endogenous Rim2 of PC12 cells. In words: cell-based or functional assay.
Experiment [2] addresses T1, constitutively active bovine Rab3A (Q81L), full-length, bait in pBTM116 (bovine, UniProt P11023 1-220).
T1 construct: also called active Rab3A (Q81L); not shown: fusion partner encoded by bait vector pBTM116
T1 sequence (looked up): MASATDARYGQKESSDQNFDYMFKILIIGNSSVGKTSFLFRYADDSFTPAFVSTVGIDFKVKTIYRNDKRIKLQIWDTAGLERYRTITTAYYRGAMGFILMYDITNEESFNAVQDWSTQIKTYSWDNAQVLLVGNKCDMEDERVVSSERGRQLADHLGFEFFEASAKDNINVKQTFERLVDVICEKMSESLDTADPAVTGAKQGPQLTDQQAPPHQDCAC
In words: yeast two-hybrid, liquid β-galactosidase assay.

Molecule “wild-type cAMP-GEFII (expressed in PC12 cells from pSRα) (from UniProt Q9EQZ6 1-1011)” came in with an 8-Br-cAMP (1 mM)-induced, Ca2+-dependent GH secretion in experiment [1] of 34.9%.

B1: rat Rim1 zinc finger domain (amino acid residues 1-204), prey in pVP16 (other, UniProt Q9JIR4 1-204, looked up)
chain: MSSAVGPRGPRPPTVPPPMQELPDLSHLTEEERNIIMAVMDRQKEEEEKEEAMLKCVVRDMAKPAACKTPRNAESQPHQPPLNIFRCVCVPRKPSSEEGGPERDWRLHQQFESYKEQVRKIGEEARRYQGEHKDDAPTCGICHKTKFADGCGHLCSYCRTKFCARCGGRVSLRSNNEDKVVMWVCNLCRKQQEILTKSGAWFFG
notes: range 1-204; not shown: fusion partner encoded by prey vector pVP16
B1: the binding result in experiment [2] was “binds”.
